Our source for the OD492 values is patent US20100143950A1.

Experiment [1] concerns the target C-reactive protein (CRP) (human) (UniProt P02741). As to the kind of experiment: ELISA, purified CFH variant on plate-coated CRP.
Experiment [2] shares this target. Briefly: ELISA, serum 1:1,000 on plate-coated CRP, detection with goat anti-human CFH.

Several values for one entry are separate records, joined by “and”; a condition that tells them apart may be missing. Identical values can stand only once.

UniProt P02741, sequence (P02741 19-224 limits assumed): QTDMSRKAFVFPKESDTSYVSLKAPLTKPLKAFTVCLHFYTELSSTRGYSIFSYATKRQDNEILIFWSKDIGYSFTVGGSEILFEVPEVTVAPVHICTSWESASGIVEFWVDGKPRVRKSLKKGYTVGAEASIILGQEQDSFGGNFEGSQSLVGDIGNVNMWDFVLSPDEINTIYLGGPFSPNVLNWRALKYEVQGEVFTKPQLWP

Regarding “Complement Factor H 402Y variant (CFH402Y), from human serum of TT homozygotes (from UniProt P08603 19-1231)”, the OD492 is 0.763 OD492 in experiment [1]; 0.532 OD492 and 0.609 OD492 in experiment [2].
